Assay results: article PMC10504324, “A microprotein N1DARP encoded by LINC00261 promotes Notch1 intracellular domain (N1ICD) degradation via disrupting USP10-N1ICD interaction to inhibit chemoresistance in Notch1-hyperactivated pancreatic cancer” (Cell Discovery, 2023)
Several values for one entry are separate records, joined by “and”; a condition that tells them apart may be missing. Equal values may be shown once. Bridge positions count the residues as written; N and C are the ends. Square brackets hold non-standard residues; d marks the D form. Ends that are not written are not given here. S5 = C=CCCC[C@](C)(N)C(=O)O

Assays:
Capan1 = experiment: IC50 assay, chemosensitivity to GEM; format: cell-based; details: Homo sapiens, CAPAN-1; Capan1, Vector; Fig. 5j
[1] = test system: metastatic pancreatic cancers; details: cited from earlier work; for remission in clinical studies: γ-secretase inhibitors, metastatic pancreatic cancers
Source text: The Notch pathway is active in a broad spectrum of human cancers, including breast, colorectal, lung, prostate, glioblastoma, and pancreatic cancer. Notch signaling is positively associated with pancreatic tumor initiation, progression, and drug resistance in both cell lines and genetic mutant mouse models[7],[8]. In preclinical models, pharmacological inhibition of Notch signaling by small molecules designed to affect HES1 transcriptional function (JI051 and JI130)[9] and natural agents targeting the Notch pathway, such as curcumin, genistein, quercetin, and sulforaphane, slowed tumor prol ...

[2] = biological target: AH2, alpha-helical peptide 2 of N1DARP (human); experiment: SPR; BIAcore T200 (GE Healthcare); dissociation constant calculated with BIA-evaluation software; which partner was immobilised is not stated
ANK domain of N1ICD = ANK domain of N1ICD (Homo sapiens, UniProt P46531); experiment: SPR analysis, affinity for ANK domain; format: binding; details: mAH2 compared with AH2, Fig. S8E
Method: The binding kinetics between N1DARP or SAH-mAH2-5 and the indicated peptides were analyzed using a SPR assay with a BIAcore T200 instrument (GE Healthcare, Pittsburgh, PA, USA). The dissociation constant was calculated using BIA-evaluation software.
309 was determined using reversed phase HPLC with electrospray ionization mass spectrometric detection.
311 Supplementary Note S1. Generation and modification of N1DARP-derived stapled peptide SAH-
313 To evaluate the therapeutic potential of disrupting the N1ICD-USP10 interaction with N1DARP and
314 define a more druggable target, we simulated the tertiary structure of N1DARP using I-TASSAR, a
315 hierarchical server for protein structure prediction4, and identified two α-helical peptides (AH1 and
316 AH2) (Fig. S8A, left panel).
318 we constructed and purified six subdomains with α-helix secondary structure of ANK, designated from
320 S8B-S8D). To optimize the physicochemical properties of AH2, we first checked the amino acid
322 cancer cells to AH2; therefore, we tried amino acid substitution of Glu32 by Gln32. SPR analysis
324 mAH2 (Fig. S8E). Next, to identify the indispensable amino acids mediating mAH2 and ANK
325 interactions, we substituted each amino acid of mAH2 with Ala, followed by SPR analysis. The results
328 i + 4, or i + 7) and denoted them as stapled α-helices (SAHs). […]

[3] = biological target: N1ICD (wild type; source not stated) (UniProt P46531); experiment: co-IP followed by western blotting (band intensity); details: HEK293T, IgG control 0.00
[4] = biological target: T1, ANK domain of Notch1 intracellular domain (N1ICD-ANK) (UniProt P46531 1927-2122); experiment: SPR; BIAcore T200 (GE Healthcare); dissociation constant calculated with BIA-evaluation software; which partner was immobilised is not stated; details: both partners purified
T1 construct: Notch1, ankyrin repeat (ANK) domain of the intracellular domain; the numbers fit human NOTCH1 (2555 aa); also called ANK repeat

[5] = biological target: T2, ANK domain of Notch2 intracellular domain (N2ICD-ANK) (UniProt Q04721 1827-2038); experiment: as above; details: both partners purified
T2 construct: Notch2, ANK domain of the intracellular domain; position 1827-2038, length 212 aa printed
T2 sequence (looked up): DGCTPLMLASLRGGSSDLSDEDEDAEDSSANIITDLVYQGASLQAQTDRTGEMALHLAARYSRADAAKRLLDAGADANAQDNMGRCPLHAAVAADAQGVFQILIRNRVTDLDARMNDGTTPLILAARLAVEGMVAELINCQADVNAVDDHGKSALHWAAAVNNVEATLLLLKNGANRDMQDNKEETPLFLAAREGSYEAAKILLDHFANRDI

[6] = biological target: T3, ANK domain of Notch4 intracellular domain (N4ICD-ANK) (UniProt Q99466 1633-1798); experiment: as above; details: both partners purified
T3 construct: Notch4, ANK domain of the intracellular domain; position 1633-1798, length 166 aa printed
T3 sequence (looked up): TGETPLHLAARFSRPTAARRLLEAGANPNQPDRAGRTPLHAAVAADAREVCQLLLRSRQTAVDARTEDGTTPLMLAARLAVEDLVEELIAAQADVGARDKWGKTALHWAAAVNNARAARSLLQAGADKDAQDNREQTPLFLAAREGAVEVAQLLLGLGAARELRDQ

[7] = biological target: T4, ANK domain of Notch3 intracellular domain (N3ICD-ANK) (UniProt Q9UM47 1838-2000); experiment: as above; details: both partners purified
T4 construct: Notch3, ANK domain of the intracellular domain; position 1838-2000, length 163 aa printed
T4 sequence (looked up): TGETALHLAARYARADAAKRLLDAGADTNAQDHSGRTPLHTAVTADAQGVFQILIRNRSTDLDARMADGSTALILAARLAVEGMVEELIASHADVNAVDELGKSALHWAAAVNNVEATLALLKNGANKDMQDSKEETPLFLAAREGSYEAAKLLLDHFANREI

[8] = IP: Anti-Flag (N1DARP-Flag), blot: Myc
[9] = IP: Anti-Myc (N1ICD-Myc), blot: Flag

Nc1ccn([C@@H]2O[C@H](CO)[C@@H](O)C2(F)F)c(=O)n1 [GEM, gemcitabine]
IC50 (Capan1): 44 nM

O=C(O)CC[C@H]1CC[C@@](c2cc(F)ccc2F)(S(=O)(=O)c2ccc(Cl)cc2)CC1 [MK-0752]
remission in clinical studies [1]: no significant remission was observed

CCC[C@H](N[C@H]1CCc2cc(F)cc(F)c2C1)C(=O)Nc1cn(C(C)(C)CNCC(C)(C)C)cn1 [PF-03084014]
remission in clinical studies [1]: no significant remission was observed

CC(C)(C(=O)NCC(F)(F)C(F)(F)F)C(=O)N[C@@H]1C(=O)Nc2ccccc2-c2ccccc21 [RO4929097]
remission in clinical studies [1]: no significant remission was observed

ANK1, subdomain of the ANK domain of N1ICD (from UniProt P46531 19-2555) (domain or fragment)
Kd [2]: 43.4 nM

ANK2, subdomain of the ANK domain of N1ICD (from UniProt P46531 19-2555) (domain or fragment)
Kd [2]: 23300 nM

ANK3, subdomain of the ANK domain of N1ICD (from UniProt P46531 19-2555) (domain or fragment)
Kd [2]: 85800 nM

ANK4, subdomain of the ANK domain of N1ICD (from UniProt P46531 19-2555) (domain or fragment)
Kd [2]: 66100 nM

ANK5, subdomain of the ANK domain of N1ICD (from UniProt P46531 19-2555) (domain or fragment)
Kd [2]: 42800 nM

ANK6, subdomain of the ANK domain of N1ICD (from UniProt P46531 19-2555) (domain or fragment)
Kd [2]: 64200 nM

mAH2: AH2 with amino acid substitution of Glu32 by Gln32 (YAKRIFYQLLSKQL)
affinity for ANK after substitution of Glu32 by Gln32 (ANK domain of N1ICD): comparable affinity

tarextumab: fully human IgG2 antibody that inhibits Notch2/3 receptors
remission and tolerance, phase II study ([1]; metastatic pancreatic cancer, in combination with gemcitabine (GEM) and paclitaxel): remarkable remission and tolerance

wild-type N1DARP (overexpressed) D41A
response [3, 8]: 0.87 | response [3, 9]: 1.07

wild-type N1DARP (overexpressed) G12A
response [3, 8]: 0.91 | response [3, 9]: 0.93

wild-type N1DARP (overexpressed) L28A
response [3, 8]: 1.01 | response [3, 9]: 0.87

wild-type N1DARP (overexpressed) Y20A
response [3, 8]: 0.26 | response [3, 9]: 0.35

wild-type N1DARP (overexpressed) Y20A; Y34A
response [3, 8]: 0 | response [3, 9]: 0

wild-type N1DARP (overexpressed) Y34A
response [3, 8]: 0.43 | response [3, 9]: 0.31

B1: AH1, alpha-helical peptide 1 of N1DARP (peptide)
peptide: LLEKKRQY
notes: N1DARP, 41-aa microprotein encoded by LINC00261 (ORF12); source: synthetic peptide (Chinese Peptide, Inc., Hangzhou; > 98% purity)
Kd [4]: 213 nM

B2: mAH2, AH2 of N1DARP with Glu32 substituted by Gln32 (peptide)
peptide: YAKRIFYQLLSKQL
notes: N1DARP (41 aa, encoded by LINC00261) residues 20-33 with E32Q; also called modified AH2; substituted AH2; source: synthetic peptide (Chinese Peptide, Inc., Hangzhou; > 98% purity)
Kd [4]: 60.4 nM and 45.2 nM

B3: AH2, alpha-helical peptide 2 of N1DARP (peptide)
peptide: YAKRIFYQLLSKEL
notes: N1DARP, 41-aa microprotein encoded by LINC00261 (ORF12); source: synthetic peptide (Chinese Peptide, Inc., Hangzhou; > 98% purity); 'purified AH2 peptide'
Kd [4]: 60.4 nM

B4: mAH2-1, alanine mutant of mAH2 (peptide)
peptide: AAKRIFYQLLSKQL
notes: N1DARP residues 20-33 with E32Q and position 1 of the peptide (Y20) to Ala; source: synthetic peptide (Chinese Peptide, Inc., Hangzhou; > 98% purity)
Kd [4]: 96.1 nM

B5: mAH2-3, alanine mutant of mAH2 (peptide)
peptide: YAARIFYQLLSKQL
notes: N1DARP residues 20-33 with E32Q and position 3 of the peptide (K22) to Ala; source: synthetic peptide (Chinese Peptide, Inc., Hangzhou; > 98% purity)
Kd [4]: 51.1 nM

B6: mAH2-4, alanine mutant of mAH2 (peptide)
peptide: YAKAIFYQLLSKQL
notes: N1DARP residues 20-33 with E32Q and position 4 of the peptide (R23) to Ala; source: synthetic peptide (Chinese Peptide, Inc., Hangzhou; > 98% purity)
Kd [4]: 74.5 nM

B7: mAH2-5, alanine mutant of mAH2 (peptide)
peptide: YAKRAFYQLLSKQL
notes: N1DARP residues 20-33 with E32Q and position 5 of the peptide (I24) to Ala; source: synthetic peptide (Chinese Peptide, Inc., Hangzhou; > 98% purity)
Kd [4]: 57.5 nM

B8: mAH2-6, alanine mutant of mAH2 (peptide)
peptide: YAKRIAYQLLSKQL
notes: N1DARP residues 20-33 with E32Q and position 6 of the peptide (F25) to Ala; source: synthetic peptide (Chinese Peptide, Inc., Hangzhou; > 98% purity)
Kd [4]: 63.6 nM

B9: mAH2-8, alanine mutant of mAH2 (peptide)
peptide: YAKRIFYALLSKQL
notes: N1DARP residues 20-33 with E32Q and position 8 of the peptide (Q27) to Ala; source: synthetic peptide (Chinese Peptide, Inc., Hangzhou; > 98% purity)
Kd [4]: 87.4 nM

B10: mAH2-9, alanine mutant of mAH2 (Leu28 to Ala) (peptide)
peptide: YAKRIFYQALSKQL
notes: N1DARP residues 20-33 with E32Q and position 9 of the peptide (Leu28) to Ala; source: synthetic peptide (Chinese Peptide, Inc., Hangzhou; > 98% purity)
Kd [4]: 288 nM

B11: mAH2-10, alanine mutant of mAH2 (peptide)
peptide: YAKRIFYQLASKQL
notes: N1DARP residues 20-33 with E32Q and position 10 of the peptide (L29) to Ala; source: synthetic peptide (Chinese Peptide, Inc., Hangzhou; > 98% purity)
Kd [4]: 55.5 nM

B12: mAH2-11, alanine mutant of mAH2 (peptide)
peptide: YAKRIFYQLLAKQL
notes: N1DARP residues 20-33 with E32Q and position 11 of the peptide (S30) to Ala; source: synthetic peptide (Chinese Peptide, Inc., Hangzhou; > 98% purity)
Kd [4]: 83.9 nM

B13: mAH2-12, alanine mutant of mAH2 (peptide)
peptide: YAKRIFYQLLSAQL
notes: N1DARP residues 20-33 with E32Q and position 12 of the peptide (K31) to Ala; source: synthetic peptide (Chinese Peptide, Inc., Hangzhou; > 98% purity)
Kd [4]: 78.2 nM

B14: mAH2-13, alanine mutant of mAH2 (peptide)
peptide: YAKRIFYQLLSKAL
notes: N1DARP residues 20-33 with position 13 of the peptide (residue 32: Glu in N1DARP, Gln in mAH2) to Ala; source: synthetic peptide (Chinese Peptide, Inc., Hangzhou; > 98% purity)
Kd [4]: 99 nM

B15: mAH2-14, alanine mutant of mAH2 (Leu33 to Ala) (peptide)
peptide: YAKRIFYQLLSKQA
notes: N1DARP residues 20-33 with E32Q and position 14 of the peptide (Leu33) to Ala; source: synthetic peptide (Chinese Peptide, Inc., Hangzhou; > 98% purity)
Kd [4]: 5960 nM

B16: SAH-mAH2-1, stapled alpha-helix of mAH2 (peptide)
chain: [S5]AKR[S5]FYQLLSKQL
modifications: staple 1-5
Kd [4]: 134 nM

B17: SAH-mAH2-2, stapled alpha-helix of mAH2 (peptide)
chain: Y[S5]KRI[S5]YQLLSKQL
modifications: staple 2-6
Kd [4]: 97.7 nM

B18: SAH-mAH2-3, stapled alpha-helix of mAH2 (peptide)
chain: YAKRI[S5]YQL[S5]SKQL
modifications: staple 6-10
Kd [4]: 10.5 nM

B19: SAH-mAH2-4, stapled alpha-helix of mAH2 (peptide)
chain: [S5]AKRIFY[S5]LLSKQL
modifications: staple 1-8
Kd [4]: 25.8 nM

B20: SAH-mAH2-5, N1DARP-derived stapled peptide (peptide)
chain: YAKRI[S5]YQLLSK[S5]L
modifications: staple 6-13
Kd [4]: 0.898 nM | Kd [5]: 539 nM | Kd [6]: 35.2 nM | Kd [7]: 69 nM
